Assays:
rFcRn (rat) [1] = biological target: rFcRn (rat) (UniProt P13599); assay: SPR Biacore, pH 6.0
[2] = biological target: biotinylated hFcRn (human) (UniProt P55899); assay: SPR Biacore, pH 6.0
rFcRn (rat) [3] = biological target: rFcRn (rat) (UniProt P13599); assay: SPR Biacore, pH 7.4
[4] = biological target: biotinylated hFcRn (human) (UniProt P55899); assay: SPR Biacore, pH 7.4
[5] = biological target: biotinylated human FcRn (hFcRn; p51 subunit residues 24-297 with C-terminal Avi-tag, β2-m residues 21-119) (human) (UniProt P55899); assay: Biacore SPR, pH 6.0, apparent affinity
[6] = biological target: biotinylated human FcRn (hFcRn; p51 subunit residues 24-297 with C-terminal Avi-tag, β2-m residues 21-119) (human) (UniProt P55899); assay: Biacore SPR, pH 7.4, steady state, 1000 nM antibody
[7] = biological target: biotinylated human FcRn (hFcRn; p51 subunit residues 24-297 with C-terminal Avi-tag, β2-m residues 21-119) (human) (UniProt P55899); assay: Biacore SPR; second ratio column (inverse of c7)
[8] = biological target: biotinylated human FcRn (hFcRn; p51 subunit residues 24-297 with C-terminal Avi-tag, β2-m residues 21-119) (human) (UniProt P55899); assay: Biacore SPR; pH 6.0 affinity (M^-1) over pH 7.4 steady state RU

Chain of biotinylated human FcRn (hFcRn; p51 subunit residues 24-297 with C-terminal Avi-tag, β2-m residues 21-119) (human) (P55899 24-297, form in doubt, chain 1 of 2): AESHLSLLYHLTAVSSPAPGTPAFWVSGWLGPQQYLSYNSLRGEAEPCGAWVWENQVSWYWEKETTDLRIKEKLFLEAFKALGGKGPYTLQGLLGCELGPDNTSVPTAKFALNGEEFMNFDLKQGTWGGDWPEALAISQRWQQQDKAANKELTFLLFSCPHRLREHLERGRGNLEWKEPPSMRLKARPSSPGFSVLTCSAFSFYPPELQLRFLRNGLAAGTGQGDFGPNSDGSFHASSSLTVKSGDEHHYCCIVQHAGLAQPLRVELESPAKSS
Chain of biotinylated human FcRn (hFcRn; p51 subunit residues 24-297 with C-terminal Avi-tag, β2-m residues 21-119) (human) (P61769 21-119, form in doubt, chain 2 of 2, further chain): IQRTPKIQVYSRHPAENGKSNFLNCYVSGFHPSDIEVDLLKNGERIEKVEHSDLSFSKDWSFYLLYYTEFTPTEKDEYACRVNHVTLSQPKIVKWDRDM
Chain of biotinylated hFcRn (human) (P55899 24-297 limits assumed, form in doubt, chain 1 of 2): as the sequence (P55899 24-297, form in doubt, chain 1 of 2) above
Chain of biotinylated hFcRn (human) (P61769 21-119 limits assumed, form in doubt, chain 2 of 2, further chain): as the sequence (P61769 21-119, form in doubt, chain 2 of 2, further chain) above
Chain of rFcRn (rat) (P13599 23-298 limits assumed, form in doubt, chain 1 of 2): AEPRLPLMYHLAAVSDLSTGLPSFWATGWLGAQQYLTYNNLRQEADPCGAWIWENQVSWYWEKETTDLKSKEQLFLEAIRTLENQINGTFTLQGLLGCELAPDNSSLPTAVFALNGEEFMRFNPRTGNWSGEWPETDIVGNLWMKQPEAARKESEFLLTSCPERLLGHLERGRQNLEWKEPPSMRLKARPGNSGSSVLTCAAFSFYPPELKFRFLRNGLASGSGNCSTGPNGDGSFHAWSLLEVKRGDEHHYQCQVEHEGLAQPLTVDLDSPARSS
Chain of rFcRn (rat) (P07151 21-119 limits assumed, form in doubt, chain 2 of 2, further chain): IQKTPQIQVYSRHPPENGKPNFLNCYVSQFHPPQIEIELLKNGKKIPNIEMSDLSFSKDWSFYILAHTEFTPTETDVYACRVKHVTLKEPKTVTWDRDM

Substance | Ka [5] [M⁻¹] | Steady State Binding, pH 7.4 (RU) [6] [RU] | Ratio (pH 6.0/pH 7.4) [7] | Ratio (pH 6.0/pH 7.4) [8] | Ratio (pH 7.4/pH 6.0) [7] | further results
mAb1 T256E/N434Y (antibody) | – | – | – | – | – | Kd (rFcRn (rat) [1]): 7.71 nM; koff (rFcRn (rat) [1]): 0.00098 s⁻¹; kon (rFcRn (rat) [1]): 127000 M⁻¹ s⁻¹; Kd [2]: 62.6 nM; koff [2]: 0.0393 s⁻¹; kon [2]: 628000 M⁻¹ s⁻¹; Steady State RU (rFcRn (rat) [3]): 62.2 RU; Steady State RU [4]: 26.8 RU
mAb1 T307Q/N434Y (antibody) | – | – | – | – | – | Kd (rFcRn (rat) [1]): 4.11 nM; koff (rFcRn (rat) [1]): 0.00048 s⁻¹; kon (rFcRn (rat) [1]): 116000 M⁻¹ s⁻¹; Kd [2]: 32.4 nM; koff [2]: 0.0202 s⁻¹; kon [2]: 622000 M⁻¹ s⁻¹; Steady State RU (rFcRn (rat) [3]): 63 RU; Steady State RU [4]: 38.4 RU
mAb1 YTE variant (M252Y/S254T/T256E) (antibody) | 2.92e+06 | 13.2 | 4.52e-06 | 221000 | – | –
mAb1 MDWN variant (T256D/T307W) (antibody) | 5.92e+06 | 12.2 | 2.06e-06 | 485000 | – | –
mAb1 MDTF variant (T256D/N434F) (antibody) | 3.34e+07 | 29.2 | 8.74e-07 | 1.14e+06 | – | –
mAb1 YEWN variant (M252Y/T256E/T307W) (antibody) | 6.41e+06 | 69.6 | – | 92100 | 1.09e-05 | –
mAb1 MDQF variant (T256D/T307Q/N434F) (antibody) | 6.62e+06 | 55.3 | – | 120000 | 8.35e-06 | –
mAb1 MEWF variant (T256E/T307W/N434F) (antibody) | 5.62e+07 | 41.9 | – | 1.34e+06 | 7.46e-07 | –
mAb1 YDTF variant (M252Y/T256D/N434F) (antibody) | 2.96e+07 | 57.7 | – | 513000 | 1.95e-06 | –
mAb1 YETY variant (M252Y/T256E/N434Y) (antibody) | 3.34e+07 | 22.6 | – | 1.48e+06 | 6.77e-07 | –
mAb1 MEWY variant (T256E/T307W/N434Y) (antibody) | 7.04e+07 | 46.6 | – | 1.51e+06 | 6.62e-07 | –
mAb1 MTQF variant (T307Q/N434F) (antibody) | 2.33e+07 | 34.2 | 1.47e-06 | 681000 | – | –
mAb1 YTWF variant (M252Y/T307W/N434F) (antibody) | 6.54e+07 | 62.6 | – | 1.04e+06 | – | Ratio (pH 7.4 steady-state RU / pH 6.0 affinity) [7]: 9.57e-07
mAb1 YTQN variant (M252Y/T307Q) (antibody) | 3.6e+06 | 10.6 | – | 340000 | – | Ratio (pH 7.4 steady state RU / pH 6.0 affinity) [7]: 2.94e-06
mAb1 YDQN variant (M252Y/T256D/T307Q) (antibody) | 8.7e+06 | 19.8 | – | 439000 | 2.28e-06 | –
mAb1 YDWN variant (M252Y/T256D/T307W) (antibody) | 1.01e+07 | 25.9 | – | 390000 | 2.56e-06 | –
mAb1 MTWF variant (T307W/N434F) (antibody) | 2.62e+07 | 30.5 | 1.16e-06 | 859000 | – | –
mAb1 MEQF variant (T256E/T307Q/N434F) (antibody) | 142000 | – | – | – | – | –
mAb1 METF variant (T256E/N434F) (antibody) | 1.28e+07 | 23.3 | 1.82e-06 | 549000 | – | –
mAb1 YTWN variant (M252Y/T307W) (antibody) | 8.47e+06 | 15.9 | – | 533000 | 1.88e-06 | –

Substance | Ka [5] [M⁻¹] | Steady State Binding, pH 7.4 (RU) [6] [RU] | Ratio (pH 6.0/pH 7.4) [7] | Ratio (pH 6.0/pH 7.4) [8] | Ratio (pH 7.4/pH 6.0) [7] | further results
mAb1 AAA variant (T307A/E380A/N434A) (antibody) | 562000 | 13.9 | 2.47e-05 | 40400 | – | –
mAb1 T256E/T307W (antibody) | – | – | – | – | – | Kd (rFcRn (rat) [1]): 10.6 nM; Kd [2]: 323 nM; Steady State RU (rFcRn (rat) [3]): 33 RU
mAb1 YTQF variant (M252Y/T307Q/N434F) (antibody) | 5.65e+07 | 59.9 | – | 943000 | 1.06e-06 | –
mAb1 YTTF variant (M252Y/N434F) (antibody) | 5.56e+07 | 43.8 | – | 1.27e+06 | 7.88e-07 | –
mAb1 MDQN variant (T256D/T307Q) (antibody) | 4.31e+06 | 10.7 | 2.48e-06 | 403000 | – | –
mAb1 YEQN variant (M252Y/T256E/T307Q) (antibody) | 4.59e+06 | 15.2 | – | 302000 | 3.31e-06 | –
mAb1 MEQY variant (T256E/T307Q/N434Y) (antibody) | 2.38e+07 | 38.6 | – | 617000 | 1.62e-06 | –
mAb1 MDQY variant (T256D/T307Q/N434Y) (antibody) | 3.69e+07 | 49.4 | – | 747000 | 1.34e-06 | –
mAb1 MEWN variant (T256E/T307W) (antibody) | 3.1e+06 | – | – | – | – | –
mAb1 MDWF variant (T256D/T307W/N434F) (antibody) | 2.81e+07 | 47.1 | – | 597000 | 1.68e-06 | –
mAb1 MDTY variant (T256D/N434Y) (antibody) | 6.41e+07 | 37.1 | 5.79e-07 | 1.73e+06 | – | –
mAb1 YETN variant (M252Y/T256E) (antibody) | 7.81e+06 | 9.8 | – | 797000 | 1.25e-06 | –
mAb1 YTQY variant (M252Y/T307Q/N434Y) (antibody) | 6.33e+07 | 71.5 | – | 885000 | 1.13e-06 | –
mAb1 YDTN variant (M252Y/T256D) (antibody) | 1.07e+07 | 9.7 | 9.07e-07 | 1.1e+06 | – | –
mAb1 LS variant (M428L/N434S) (antibody) | 3.68e+06 | 18.3 | 4.97e-06 | 201000 | – | –
mAb1 T256E/T307Q (antibody) | – | – | – | – | – | Kd (rFcRn (rat) [1]): 10.7 nM; Kd [2]: 499 nM; Steady State RU (rFcRn (rat) [3]): 23.4 RU
mAb1 MTWY variant (T307W/N434Y) (antibody) | 4.65e+07 | 37.2 | 8e-07 | 1.25e+06 | – | –
mAb1 METY variant (T256E/N434Y) (antibody) | 1.6e+07 | 26.8 | 1.68e-06 | 597000 | – | –
mAb1 MEQN variant (T256E/T307Q) (antibody) | 2e+06 | – | – | – | – | –
mAb1 MTQY variant (T307Q/N434Y) (antibody) | 3.09e+07 | 38.4 | 1.24e-06 | 805000 | – | –

Reference: US20190263934A1
